Four substances from article PMC6516834 can be followed below.

For test [1], the target named is Ndc80-MIND-GFP co-complex (S. cerevisiae) (UniProt P40460). In words: single molecule TIRF microscopy (residence time on microtubules); as a1, with free Spc24/Spc25 dimer (wild type or mutant) added in trans: sixtyfold excess over Broccoli-GFP, tenfold excess over Ndc80-MIND-GFP.
The target in test [2] is end-labeled Ndc80 complex Nuf2 S2C Spc25 S154C (cysteine-light, concurrently labeled with Cy3 and Alexa Fluor 647, for single molecule FRET) (S. cerevisiae) (UniProt P40460). In words: single molecule three-color TIRF co-localisation; end-labeled Ndc80 complex and GFP-MIND pre-incubated 1:10 for 15 min at room temperature, then tethered by anti-penta-His antibody to lipid-coated coverslips; co-localisation of GFP with Cy3 and Alexa Fluor 647.

The target of test [3] is taxol-stabilized microtubules (bovine brain tubulin) (bovine) (UniProt Q6B856). In words: single molecule TIRF microscopy (residence time on microtubules); fluorescent complexes in solution on taxol-stabilized microtubules; standard BRB80 buffer; mean residence time, error by bootstrapping.

Chain of free Spc24/Spc25 dimer (Q04477 whole entry): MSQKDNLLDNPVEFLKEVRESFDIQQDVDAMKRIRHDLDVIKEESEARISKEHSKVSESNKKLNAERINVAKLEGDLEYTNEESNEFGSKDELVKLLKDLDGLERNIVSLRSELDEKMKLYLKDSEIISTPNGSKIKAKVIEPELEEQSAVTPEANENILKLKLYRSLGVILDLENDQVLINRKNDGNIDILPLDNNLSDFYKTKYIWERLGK
Chain of free Spc24/Spc25 dimer (P40014 whole entry): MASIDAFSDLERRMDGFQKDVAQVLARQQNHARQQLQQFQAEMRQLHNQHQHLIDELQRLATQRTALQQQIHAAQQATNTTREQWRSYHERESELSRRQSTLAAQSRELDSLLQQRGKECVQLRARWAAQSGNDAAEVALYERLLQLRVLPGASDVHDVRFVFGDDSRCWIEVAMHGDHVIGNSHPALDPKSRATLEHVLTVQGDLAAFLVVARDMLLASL

The substance “free Spc24/Spc25 dimer (from UniProt Q04477 1-213; P40014 1-221) (complex)” yielded a mean residence time of the Ndc80-MIND-GFP co-complex on microtubules with a tenfold excess of the binder in test [1] of 4.1 s.
For “MIND complex carrying an N-terminal FLAG tag on Nsl1 and a C-terminal GFP on Mtw1 (from UniProt P39731 1-289; Q12143 1-216; P40568 1-576)”, in test [2], the percent of the end-labeled Ndc80 complexes in co-complex with MIND (tenfold excess of GFP-MIND) was 33%.
In test [1], “Spc24/Spc25 V159D dimer (from UniProt Q04477 1-213; P40014 1-221) (complex)” displayed a mean residence time of the Ndc80-MIND-GFP co-complex on microtubules with a tenfold excess of the binder of 4.2 s.
As for “Ndc80-MIND-GFP co-complex (from UniProt P40460 1-691; P33895 1-451; Q04477 1-213; P40014 1-221; P39731 1-289; P40568 1-576; Q12143 1-216)”, the mean residence time on microtubules in test [3] was 9.8 s.
